The results in this text go back to patent publication US20030120051A1 (SUGEN, published 2003).

The target in test [1] is human c-Src (human, UniProt P12931 2-536). Nature of the test: immunoprecipitation of transfected COS7 lysates with antibodies against c-Src, immunoblotting with anti-fusion antibodies. (Immunoblotting shows a protein as a band on a membrane.)
Test [2] has as its target T1, human CASPR/p190 (human, UniProt P78357 20-1384).
T1 construct: Endogenous in IMR-32 neuroblastoma cells
T1 sequence: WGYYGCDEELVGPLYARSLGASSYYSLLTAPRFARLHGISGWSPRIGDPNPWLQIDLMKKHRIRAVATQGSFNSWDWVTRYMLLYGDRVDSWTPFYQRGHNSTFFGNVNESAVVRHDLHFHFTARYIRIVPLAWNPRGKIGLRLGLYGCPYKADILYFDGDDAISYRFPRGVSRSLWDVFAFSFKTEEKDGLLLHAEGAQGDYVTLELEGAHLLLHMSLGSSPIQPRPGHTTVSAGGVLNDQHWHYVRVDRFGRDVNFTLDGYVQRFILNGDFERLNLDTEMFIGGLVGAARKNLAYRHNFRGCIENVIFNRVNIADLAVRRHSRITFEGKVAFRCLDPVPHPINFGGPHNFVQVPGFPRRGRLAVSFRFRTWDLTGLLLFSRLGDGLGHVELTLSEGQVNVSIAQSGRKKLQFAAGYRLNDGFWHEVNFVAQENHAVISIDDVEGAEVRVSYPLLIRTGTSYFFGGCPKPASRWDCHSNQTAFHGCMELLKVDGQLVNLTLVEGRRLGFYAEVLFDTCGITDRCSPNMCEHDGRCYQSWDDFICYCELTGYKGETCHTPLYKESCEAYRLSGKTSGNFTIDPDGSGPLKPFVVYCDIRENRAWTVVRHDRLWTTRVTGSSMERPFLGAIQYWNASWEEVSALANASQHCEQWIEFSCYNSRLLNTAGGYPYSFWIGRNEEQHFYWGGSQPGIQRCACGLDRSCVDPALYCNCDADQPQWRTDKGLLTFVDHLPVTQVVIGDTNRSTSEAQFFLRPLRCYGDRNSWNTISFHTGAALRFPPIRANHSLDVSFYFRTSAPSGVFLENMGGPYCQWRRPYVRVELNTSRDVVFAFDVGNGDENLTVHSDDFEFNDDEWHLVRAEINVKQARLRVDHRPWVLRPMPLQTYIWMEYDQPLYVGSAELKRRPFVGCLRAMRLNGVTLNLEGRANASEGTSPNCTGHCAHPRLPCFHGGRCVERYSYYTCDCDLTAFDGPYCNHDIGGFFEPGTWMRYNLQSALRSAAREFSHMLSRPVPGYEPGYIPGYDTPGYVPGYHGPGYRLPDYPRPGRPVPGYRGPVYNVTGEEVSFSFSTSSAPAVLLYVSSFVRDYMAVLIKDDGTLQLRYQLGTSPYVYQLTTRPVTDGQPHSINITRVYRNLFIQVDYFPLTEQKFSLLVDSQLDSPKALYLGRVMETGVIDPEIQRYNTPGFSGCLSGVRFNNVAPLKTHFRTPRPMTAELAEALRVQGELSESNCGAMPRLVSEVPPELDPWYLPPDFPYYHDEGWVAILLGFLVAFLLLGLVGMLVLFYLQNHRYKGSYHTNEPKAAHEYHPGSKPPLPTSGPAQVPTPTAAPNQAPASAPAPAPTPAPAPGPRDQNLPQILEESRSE
Put plainly: immunoprecipitation of IMR-32 lysates with CASPR/p190 antibodies, immunoblotting with contactin antibodies.

The target of test [3] is T2, rat CASPR/p190 (rat, UniProt P97846 21-1381).
T2 construct: Endogenous in GH3 cells and rat brain, or expressed from pCM190R in COS7 cells; read from membrane lysates; no cleavage site stated; also called Contactin ASsociated PRotein; 190 kDa protein
T2 sequence: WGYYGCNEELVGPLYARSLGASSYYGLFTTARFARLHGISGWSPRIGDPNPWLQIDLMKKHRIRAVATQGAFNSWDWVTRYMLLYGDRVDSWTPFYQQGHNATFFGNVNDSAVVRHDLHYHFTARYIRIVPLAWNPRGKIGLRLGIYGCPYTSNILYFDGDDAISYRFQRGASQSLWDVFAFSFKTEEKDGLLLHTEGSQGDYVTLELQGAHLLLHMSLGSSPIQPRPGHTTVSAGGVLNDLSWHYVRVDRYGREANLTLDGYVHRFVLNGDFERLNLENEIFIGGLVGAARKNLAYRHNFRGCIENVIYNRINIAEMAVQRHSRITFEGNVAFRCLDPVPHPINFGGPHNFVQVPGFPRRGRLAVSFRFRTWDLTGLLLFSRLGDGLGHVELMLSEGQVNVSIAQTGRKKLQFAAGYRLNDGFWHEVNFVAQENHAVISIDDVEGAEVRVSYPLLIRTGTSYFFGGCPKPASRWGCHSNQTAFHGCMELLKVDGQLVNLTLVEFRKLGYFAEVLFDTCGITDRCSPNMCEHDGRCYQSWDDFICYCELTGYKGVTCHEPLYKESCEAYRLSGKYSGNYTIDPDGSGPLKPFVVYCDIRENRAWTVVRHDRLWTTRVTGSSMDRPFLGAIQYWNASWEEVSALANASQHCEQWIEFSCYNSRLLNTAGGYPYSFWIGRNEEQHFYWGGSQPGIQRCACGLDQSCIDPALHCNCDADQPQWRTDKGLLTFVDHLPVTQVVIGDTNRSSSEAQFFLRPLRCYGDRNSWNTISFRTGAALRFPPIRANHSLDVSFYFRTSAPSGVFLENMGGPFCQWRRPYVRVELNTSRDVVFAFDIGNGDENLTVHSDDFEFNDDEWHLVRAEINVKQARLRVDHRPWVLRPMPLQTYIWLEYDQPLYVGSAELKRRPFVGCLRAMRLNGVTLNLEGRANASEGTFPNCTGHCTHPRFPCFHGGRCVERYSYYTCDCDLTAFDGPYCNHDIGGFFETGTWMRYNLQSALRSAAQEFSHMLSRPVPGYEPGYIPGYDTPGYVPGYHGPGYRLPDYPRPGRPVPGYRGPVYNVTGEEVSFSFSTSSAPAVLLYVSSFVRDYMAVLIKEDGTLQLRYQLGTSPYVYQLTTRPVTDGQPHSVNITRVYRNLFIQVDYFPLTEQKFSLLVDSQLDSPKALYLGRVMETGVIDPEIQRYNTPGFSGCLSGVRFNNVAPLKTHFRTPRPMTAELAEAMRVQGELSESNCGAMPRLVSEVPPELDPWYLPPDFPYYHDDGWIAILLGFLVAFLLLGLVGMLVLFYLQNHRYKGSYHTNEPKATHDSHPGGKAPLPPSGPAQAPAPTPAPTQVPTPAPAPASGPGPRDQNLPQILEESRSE
Nature of the test: co-precipitation of p190 with contactin by the RPTPβ Fc fusion from GH3 membrane extracts.

B1: HA-tagged rat CASPR/p190 (pCM190HA) (receptor, not shown: small tags and cut ends)
chain: T2 sequence
notes: Expressed in COS7 cells; also called tagged CASPR/p190; CASPR/p190 fusion proteins
Consider B1, for which the binding result in test [1] is “binds”.

B2: human contactin of IMR-32 neuroblastoma cells (140 kDa protein) (receptor, UniProt Q12860 21-993, looked up)
chain: EFTWYRRYGHGVSEEDKGFGPIFEEQPINTIYPEESLEGKVSLNCRARASPFPVYKWRMNNGDVDLTSDRYSMVGGNLVINNPDKQKDAGIYYCLASNNYGMVRSTEATLSFGYLDPFPPEERPEVRVKEGKGMVLLCDPPYHFPDDLSYRWLLNEFPVFITMDKRRFVSQTNGNLYIANVEASDKGNYSCFVSSPSITKSVFSKFIPLIPIPERTTKPYPADIVVQFKDVYALMGQNVTLECFALGNPVPDIRWRKVLEPMPSTAEISTSGAVLKIFNIQLEDEGIYECEAENIRGKDKHQARIYVQAFPEWVEHINDTEVDIGSDLYWPCVATGKPIPTIRWLKNGYAYHKGELRLYDVTFENAGMYQCIAENTYGAIYANAELKILALAPTFEMNPMKKKILAAKGGRVIIECKPKAAPKPKFSWSKGTEWLVNSSRILIWEDGSLEINNITRNDGGIYTCFAENNRGKANSTGTLVITDPTRIILAPINADITVGENATMQCAASFDPALDLTFVWSFNGYVIDFNKENIHYQRNFMLDSNGELLIRNAQLKHAGRYTCTAQTIVDNSSASADLVVRGPPGPPGGLRIEDIRATSVALTWSRGSDNHSPISKYTIQTKTILSDDWKDAKTDPPIIEGNMEAARAVDLIPWMEYEFRVVATNTLGRGEPSIPSNRIKTDGAAPNVAPSDVGGGGGRNRELTITWAPLSREYHYGNNFGYIVAFKPFDGEEWKKVTVTNPDTGRYVHKDETMSPSTAFQVKVKAFNNKGDGPYSLVAVINSAQDAPSEAPTEVGVKVLSSSEISVHWEHVLEKIVESYQIRYWAAHDKEEAANRVQVTSQEYSARLENLLPDTQYFIEVGACNSAGCGPPSDMIEAFTKKAPPSQPPRIISSVRSGSRYIITWDHVVALSNESTVTGYKVLYRPDGQHDGKLYSTHKHSIEVPIPRDGEYVVEVRAHSDGGDGVVSQVKIS
modifications: GPI-anchored
notes: whole, on cells; also called p140
Consider B2, for which the binding result in test [2] is on record as “binds”.

B3: rat contactin (clone F8; p140 of GH3 cells) (receptor, UniProt Q63198 21-1001, looked up)
chain: EFTWHRRYGHGVSEEDKGFGPIFEEQPINTIYPEESLEGKVSLNCRARASPFPVYKWRMNNGDVDLTNDRYSMVGGNLVINNPDKQKDAGIYYCLASNNYGMVRSTEATLSFGYLDPFPPEDRPEVKVKEGKGMVLLCDPPYHFPDDLSYRWLLNEFPVFITMDKRRFVSQTNGNLYIANVESSDRGNYSCFVSSPSITKSVFSKFIPLIPIPERTTKPYPADIVVQFKDIYTMMGQNVTLECFALGNPVPDIRWRKVLEPMPTTAEISTSGAVLKIFNIQLEDEGLYECEAENIRGKDKHQARIYVQAFPEWVEHINDTEVDIGSDLYWPCVATGKPIPTIRWLKNGYAYHKGELRLYDVTFENAGMYQCIAENAYGTIYANAELKILALAPTFEMNPMKKKILAAKGGRVIIECKPKAAPKPKFSWSKGTEWLVNSSRILIWEDGSLEINNITRNDGGIYTCFAENNRGKANSTGTLVITNPTRIILAPINADITVGENATMQCAASFDPSLDLTFVWSFNGYVIDFNKEITNIHYQRNFMLDANGELLIRNAQLKHAGRYTCTAQTIVDNSSASADLVVRGPPGPPGGLRIEDIRATSVALTWSRGSDNHSPISKYTIQTKTILSDDWKDAKTDPPIIEGNMESAKAVDLIPWMEYEFRVVATNTLGTGEPSIPSNRIKTDGAAPNVAPSDVGGGGGTNRELTITWAPLSREYHYGNNFGYIVAFKPFDGEEWKKVTVTNPDTGRYVHKDETMTPSTAFQVKVKAFNNKGDGPYSLIAVINSAQDAPSEAPTEVGVKVLSSSEISVHWKHVLEKIVESYQIRYWAGHDKEAAAHRVQVTSQEYSARLENLLPDTQYFIEVGACNSAGCGPSSDVIETFTRKAPPSQPPRIISSVRSGSRYIITWDHVVALSNESTVTGYKILYRPDGQHDGKLFSTHKHSIEVPIPRDGEYVVEVRAHSDGGDGVVSQVKISGVSTLS
modifications: GPI-anchored
notes: whole, on cells; On transfected COS7 cells, on GH3 cells, in solubilized GH3 membranes or in rat brain membranes, as the entry says; also called rat homologue of contactin; F3/F11
With B3, in test [3], the binding result is given as “binds”.
